The values below come from patent publication US11672873 (NANTBIO, dated 2023).

The experiment deals with T1, B7-H4 expressed on the human breast cancer cell line SkBr3 and on the B7-H4 expressing cell line MX-1 (human (SkBr3 is called a human breast …, UniProt Q7Z7D3 25-282)).
T1 construct: whole, on cells; also called VTCN1; B7x
T1 sequence (looked up): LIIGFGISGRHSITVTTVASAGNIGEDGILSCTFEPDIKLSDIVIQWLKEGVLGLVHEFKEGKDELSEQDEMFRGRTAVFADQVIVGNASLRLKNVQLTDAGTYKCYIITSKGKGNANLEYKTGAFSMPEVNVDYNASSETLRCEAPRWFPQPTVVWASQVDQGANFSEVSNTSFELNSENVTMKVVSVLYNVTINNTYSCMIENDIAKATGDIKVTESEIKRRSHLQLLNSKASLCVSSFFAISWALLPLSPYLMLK
The experiment in a line: staining of SkBr3 cells, antibody at 10 ug/ml (FIG. 1).

B1: anti-B7-H4 antibody 817 (antibody, V domains shown)
VH: EVQLVESGGGLVQPGGSLRLSCAASGFTFSSYAMHWVRQAPGKGLEWVSAISGSGGSTRYADSVKGRFTISRDNSKNTLYLQMNSLRAEDTAVYYCARGRWSKWGFDVWGQGTLVTVSS
VL: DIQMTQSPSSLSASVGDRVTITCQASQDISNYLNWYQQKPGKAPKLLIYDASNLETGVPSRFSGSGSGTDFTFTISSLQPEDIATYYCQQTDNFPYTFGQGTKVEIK
Take B1: the binding result is given as “binds”.

B2: anti-B7-H4 antibody 801 (antibody, V domains shown)
VH: EVQLVESGGGLVQPGGSLRLSCAASGFTFNSYAMHWVRQAPGKGLEWVSAISGNGGSTRYADSVKGRFTISRDNSKNTLYLQMNSLRAEDTAVYYCARDRFRKVHGFDVWGQGTLVTVSS
VL: DIQMTQSPSSLSASVGDRVTITCQASQDISNYLNWYQQKPGKAPKLLIYDASNLETGVPSRFSGSGSGTDFTFTISSLQPEDIATYYCQQDATFPLTFGQGTKVEIK
Take B2: the binding result is given as “binds”.
